Residue numbers refer to the chain shown, from its start. Numbered stars: 1 amine (or outer) side, 2 acyl side, 3 side chain; on linkers, the order of the positions; unused ones are H or OH. Square brackets hold non-standard residues; d marks the D form. Side chains are listed from the residue outwards. Ends that are not written are not given here. * marks the point of attachment. C20 diacid = O=C(O)CCCCCCCCCCCCCCCCCCC(=O)*; C18 diacid = O=C(O)CCCCCCCCCCCCCCCCC(=O)*; γGlu = O=C(O)[C@H](CCC(=O)[*:2])N[*:1]; AEEA = NCCOCCOCC(=O)O; Aib = CC(C)(N)C(=O)O
T1: human GIP receptor (human, UniProt P48546 22-466)
T1 construct: whole, on cells; also called hGIPR; hGIP-R
T1 sequence (looked up): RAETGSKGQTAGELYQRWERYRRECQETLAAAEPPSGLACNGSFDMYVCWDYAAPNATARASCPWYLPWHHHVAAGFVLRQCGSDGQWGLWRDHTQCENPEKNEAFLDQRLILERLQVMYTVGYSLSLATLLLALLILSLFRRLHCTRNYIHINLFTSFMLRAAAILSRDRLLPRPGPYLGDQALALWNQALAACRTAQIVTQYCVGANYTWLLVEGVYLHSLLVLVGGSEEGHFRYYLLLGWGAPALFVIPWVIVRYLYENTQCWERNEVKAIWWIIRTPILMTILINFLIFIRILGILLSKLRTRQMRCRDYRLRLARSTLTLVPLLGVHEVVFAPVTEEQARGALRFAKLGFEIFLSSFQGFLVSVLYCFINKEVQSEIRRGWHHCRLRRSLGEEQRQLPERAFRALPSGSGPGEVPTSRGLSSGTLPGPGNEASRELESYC

B1: Example 289 (peptide)
peptide: YXEGTFTSDYSIXLDKKAQXEFIEYLIAGGPSSGAPPPS
modifications: Aib2; αMeL13; K17((2-[2-(2-Amino-ethoxy)-ethoxy]-acetyl)2-(γ-Glu)-CO-(CH2)18-CO2H); Aib20; C-terminal NH2
notes: also called GG-731
B2: Example 344 (peptide)
peptide: B1 peptide with K16E, E21D
modifications: Aib2; αMeL13; K17((2-[2-(2-Amino-ethoxy)-ethoxy]-acetyl)2-(γ-Glu)-CO-(CH2)18-CO2H); Aib20; C-terminal NH2
B3: Example 352 (peptide)
peptide: B1 peptide with Y1X, E21A, E24X
modifications: D-Tyr1; Aib2; αMeL13; K17((2-[2-(2-Amino-ethoxy)-ethoxy]-acetyl)2-(γ-Glu)-CO-(CH2)18-CO2H); Aib20; D-Glu24; C-terminal NH2
B4: Example 319 (peptide)
peptide: Y[Aib]EGTFTSDYSILLDKK([AEEA-AEEA-γGlu-C20 diacid])AQ[Aib]EFIEYLIAGGPSSGAPPPS-NH2
modifications: N-terminus assumed
SMILES: CC[C@H](C)[C@H](NC(=O)[C@H](CC(C)C)NC(=O)[C@H](Cc1ccc(O)cc1)NC(=O)[C@H](CCC(=O)O)NC(=O)[C@@H](NC(=O)[C@H](Cc1ccccc1)NC(=O)[C@H](CCC(=O)O)NC(=O)C(C)(C)NC(=O)[C@H](CCC(N)=O)NC(=O)[C@H](C)NC(=O)[C@H](CCCCNC(=O)COCCOCCNC(=O)COCCOCCNC(=O)CC[C@H](NC(=O)CCCCCCCCCCCCCCCCCCC(=O)O)C(=O)O)NC(=O)[C@H](CCCCN)NC(=O)[C@H](CC(=O)O)NC(=O)[C@H](CC(C)C)NC(=O)[C@H](CC(C)C)NC(=O)[C@@H](NC(=O)[C@H](CO)NC(=O)[C@H](Cc1ccc(O)cc1)NC(=O)[C@H](CC(=O)O)NC(=O)[C@H](CO)NC(=O)[C@@H](NC(=O)[C@H](Cc1ccccc1)NC(=O)[C@@H](NC(=O)CNC(=O)[C@H](CCC(=O)O)NC(=O)C(C)(C)NC(=O)[C@@H](N)Cc1ccc(O)cc1)[C@@H](C)O)[C@@H](C)O)[C@@H](C)CC)[C@@H](C)CC)C(=O)N[C@@H](C)C(=O)NCC(=O)NCC(=O)N1CCC[C@H]1C(=O)N[C@@H](CO)C(=O)N[C@@H](CO)C(=O)NCC(=O)N[C@@H](C)C(=O)N1CCC[C@H]1C(=O)N1CCC[C@H]1C(=O)N1CCC[C@H]1C(=O)N[C@@H](CO)C(N)=O
B5: Example 356 (peptide)
peptide: B1 peptide with Y1X, E21A, E24X, A28E
modifications: D-Tyr1; Aib2; αMeL13; K17((2-[2-(2-Amino-ethoxy)-ethoxy]-acetyl)2-(γ-Glu)-CO-(CH2)18-CO2H); Aib20; D-Glu24; C-terminal NH2
B6: Example 296 (peptide)
peptide: Y[Aib]EGTFTSDYSILLDKK([AEEA-AEEA-γGlu-C18 diacid])AQKAFIEYLIEGGPSSG-NH2
modifications: N-terminus assumed
SMILES: CC[C@H](C)[C@H](NC(=O)[C@H](CC(C)C)NC(=O)[C@H](Cc1ccc(O)cc1)NC(=O)[C@H](CCC(=O)O)NC(=O)[C@@H](NC(=O)[C@H](Cc1ccccc1)NC(=O)[C@H](C)NC(=O)[C@H](CCCCN)NC(=O)[C@H](CCC(N)=O)NC(=O)[C@H](C)NC(=O)[C@H](CCCCNC(=O)COCCOCCNC(=O)COCCOCCNC(=O)CC[C@H](NC(=O)CCCCCCCCCCCCCCCCC(=O)O)C(=O)O)NC(=O)[C@H](CCCCN)NC(=O)[C@H](CC(=O)O)NC(=O)[C@H](CC(C)C)NC(=O)[C@H](CC(C)C)NC(=O)[C@@H](NC(=O)[C@H](CO)NC(=O)[C@H](Cc1ccc(O)cc1)NC(=O)[C@H](CC(=O)O)NC(=O)[C@H](CO)NC(=O)[C@@H](NC(=O)[C@H](Cc1ccccc1)NC(=O)[C@@H](NC(=O)CNC(=O)[C@H](CCC(=O)O)NC(=O)C(C)(C)NC(=O)[C@@H](N)Cc1ccc(O)cc1)[C@@H](C)O)[C@@H](C)O)[C@@H](C)CC)[C@@H](C)CC)C(=O)N[C@@H](CCC(=O)O)C(=O)NCC(=O)NCC(=O)N1CCC[C@H]1C(=O)N[C@@H](CO)C(=O)N[C@@H](CO)C(=O)NCC(N)=O
B7: Example 291 (peptide)
peptide: B1 peptide with Y1X, K16X, E21A, E24X
modifications: D-Tyr1; Aib2; αMeL13; Orn16; K17((2-[2-(2-Amino-ethoxy)-ethoxy]-acetyl)2-(γ-Glu)-CO-(CH2)18-CO2H); Aib20; D-Glu24; C-terminal NH2
B8: Example 357 (peptide)
peptide: XXEGTFTSDYSIXLDXKAQXAFIXYLIEGGPSSGAPPPS
modifications: D-Tyr1; Aib2; αMeL13; Orn16; K17((2-[2-(2-Amino-ethoxy)-ethoxy]-acetyl)2-(γ-Glu)-CO-(CH2)18-CO2H); Aib20; D-Glu24; C-terminal NH2
B9: Example 349 (peptide)
peptide: B1 peptide with Y1X, K16X
modifications: D-Tyr1; Aib2; αMeL13; Orn16; K17((2-[2-(2-Amino-ethoxy)-ethoxy]-acetyl)2-(γ-Glu)-CO-(CH2)18-CO2H); Aib20; C-terminal NH2
B10: Example 354 (peptide)
peptide: B8 peptide with A21E, E28A
modifications: D-Tyr1; Aib2; αMeL13; Orn16; K17((2-[2-(2-Amino-ethoxy)-ethoxy]-acetyl)2-(γ-Glu)-CO-(CH2)18-CO2H); Aib20; D-Glu24; C-terminal NH2
B11: Example 359 (peptide)
peptide: B1 peptide with Y1X, K16X, I23V
modifications: D-Tyr1; Aib2; αMeL13; Orn16; K17((2-[2-(2-Amino-ethoxy)-ethoxy]-acetyl)2-(γ-Glu)-CO-(CH2)18-CO2H); Aib20; C-terminal NH2
B12: Example 362 (peptide)
peptide: B8 peptide with I23V, E28A
modifications: D-Tyr1; Aib2; αMeL13; Orn16; K17((2-[2-(2-Amino-ethoxy)-ethoxy]-acetyl)2-(γ-Glu)-CO-(CH2)18-CO2H); Aib20; D-Glu24; C-terminal NH2
B13: Example 364 (peptide)
peptide: B8 peptide with I23V, E28A
modifications: not fully specified; D-Tyr1; Aib2; αMeL13; Orn16; K17((2-[2-(2-Amino-ethoxy)-ethoxy]-acetyl)2-(γ-Glu)-CO-(CH2)16-CO2H); Aib20; D-Glu24; C-terminal NH2

The binders below were run against T2, human GLP-1 receptor (human, UniProt P43220 24-463) (assay: [125I]-GLP-1 competition SPA, hGLP-1R membranes).
T2 construct: whole, on cells; also called hGLP-1R; hGLP1R
Experimental: The binding buffer contains 25 mM HEPES, pH 7.4, 2.5 mM CaCl₂, 1 mM MgCl₂, 0.1% (w/v) bacitracin, 0.003% (w/v) TWEEN®-20, and Roche Complete™ Protease Inhibitors without EDTA.
(§1) Data are analyzed using four-parameter (curve maximum, curve minimum, IC₅₀, Hill slope) nonlinear regression routines (Genedata Screener, version 12.0.4, Genedata AG, Basal, Switzerland). […] Values for Kᵢ are reported as the geometric mean, with error expressed as the standard error of the mean (SEM) and n is equal to the number of independent replicates (determined in assays performed on different days). Geometric Means are calculated as follows: […]
B1 showed a Ki of 2.63 nM.
B2 gave a Ki of 14.8 nM.
Binder B3 has a Ki of 3.03 nM.
B4 gave a Ki of 3.61 nM.
Binder B5 has a Ki of 10.3 nM.
Work on B6 yielded a Ki of 3.33 nM.
B7 gave a Ki of 3.16 nM.
B8 showed a Ki of 7.02 nM.
B9 showed a Ki of 1.72 nM.
B10 gave a Ki of 7.85 nM.
With B11 the Ki was 2.59 nM.
B12 gave a Ki of 6.95 nM.
With B13 the Ki was 17.2 nM.

These binders were tested against T1, human GIP receptor (assay: [125I]-GIP competition SPA, hGIPR membranes).
Experimental: The binding buffer contains 25 mM HEPES, pH 7.4, 2.5 mM CaCl₂, 1 mM MgCl₂, 0.1% (w/v) bacitracin, 0.003% (w/v) TWEEN®-20, and Roche Complete™ Protease Inhibitors without EDTA. […] Plates are sealed and mixed on a plate shaker (setting 6) for 1 minute and read with a PerkinElmer Trilux MicroBeta® scintillation counter after 2.5 to 12 hours of incubation/settling time at room temperature.
as §1
For B1, the Ki was 0.0457 nM.
For B2, the Ki was 0.0507 nM.
For B3, the Ki was 0.0726 nM.
In the case of B4, the Ki is reported as 0.0349 nM.
Work on B5 yielded a Ki of 0.35 nM.
For B6, the Ki was 0.444 nM.
B7 showed a Ki of 0.129 nM.
B8 gave a Ki of 0.316 nM.
B9 was tested, and the Ki was 0.08 nM.
B10 gave a Ki of 0.175 nM.
B11 was tested, and the Ki was 0.0874 nM.
B12 showed a Ki of 0.337 nM.
With B13 the Ki was 0.672 nM.

Source: patent publication US20200024322A1 (Eli Lilly, published 2020)
